# Starred links: 1 amine or outer side, 2 acyl side, 3 side chain; linkers in the order of their positions; H or OH if unused. Non-standard residues stand in square brackets, D forms with d. Groups on a side chain read outwards from the residue. No end group written: not given here. *: point of attachment. C16 diacid = O=C(O)CCCCCCCCCCCCCCC(=O)*; γGlu = O=C(O)[C@H](CCC(=O)[*:2])N[*:1]; Aib = CC(C)(N)C(=O)O
# T1: CRF1R receptor (anti-target) (UniProt P34998 24-415, limits assumed)
# T1 sequence (looked up): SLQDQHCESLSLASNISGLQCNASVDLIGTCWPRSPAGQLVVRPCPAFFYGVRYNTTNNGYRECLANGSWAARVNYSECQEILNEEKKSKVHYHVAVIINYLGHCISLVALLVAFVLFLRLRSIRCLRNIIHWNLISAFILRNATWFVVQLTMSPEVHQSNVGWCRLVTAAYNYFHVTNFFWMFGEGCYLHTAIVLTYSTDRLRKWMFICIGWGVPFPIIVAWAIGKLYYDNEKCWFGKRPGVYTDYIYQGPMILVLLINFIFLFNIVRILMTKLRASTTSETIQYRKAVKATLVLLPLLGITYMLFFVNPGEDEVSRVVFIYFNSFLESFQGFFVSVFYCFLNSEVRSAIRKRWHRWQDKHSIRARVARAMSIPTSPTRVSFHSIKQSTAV
# Molecular target: T1, CRF1R receptor (anti-target)
# Experiment: cell-based or functional assay
CRF1/CRF2 ratio (of EC50),"CRF1 EC50 (cAMP, HTRF)",Binder
> 500,> 100 nM,IVLSLD[dV]PIGLK([γGlu-C16 diacid])QILLKQERQKK[Aib]REQAEKNKRILERV-NH2 (N-terminus assumed; SMILES CC[C@H](C)[C@H](N)C(=O)N[C@H](C(=O)N[C@@H](CC(C)C)C(=O)N[C@@H](CO)C(=O)N[C@@H](CC(C)C)C(=O)N[C@@H](CC(=O)O)C(=O)N[C@@H](C(=O)N1CCC[C@H]1C(=O)N[C@H](C(=O)NCC(=O)N[C@@H](CC(C)C)C(=O)N[C@@H](CCCCNC(=O)CC[C@H](NC(=O)CCCCCCCCCCCCCCC(=O)O)C(=O)O)C(=O)N[C@@H](CCC(N)=O)C(=O)N[C@H](C(=O)N[C@@H](CC(C)C)C(=O)N[C@@H](CC(C)C)C(=O)N[C@@H](CCCCN)C(=O)N[C@@H](CCC(N)=O)C(=O)N[C@@H](CCC(=O)O)C(=O)N[C@@H](CCCNC(=N)N)C(=O)N[C@@H](CCC(N)=O)C(=O)N[C@@H](CCCCN)C(=O)N[C@@H](CCCCN)C(=O)NC(C)(C)C(=O)N[C@@H](CCCNC(=N)N)C(=O)N[C@@H](CCC(=O)O)C(=O)N[C@@H](CCC(N)=O)C(=O)N[C@@H](C)C(=O)N[C@@H](CCC(=O)O)C(=O)N[C@@H](CCCCN)C(=O)N[C@@H](CC(N)=O)C(=O)N[C@@H](CCCCN)C(=O)N[C@@H](CCCNC(=N)N)C(=O)N[C@H](C(=O)N[C@@H](CC(C)C)C(=O)N[C@@H](CCC(=O)O)C(=O)N[C@@H](CCCNC(=N)N)C(=O)N[C@H](C(N)=O)C(C)C)[C@@H](C)CC)[C@@H](C)CC)[C@@H](C)CC)C(C)C)C(C)C) [peptide of SEQ ID NO: 196]
> 500,> 100 nM,IVLSLD[dV]PIGLK([γGlu-C16 diacid])QILLKQERQKK[Aib]REQAETNKRILERV-NH2 (N-terminus assumed; SMILES CC[C@H](C)[C@H](N)C(=O)N[C@H](C(=O)N[C@@H](CC(C)C)C(=O)N[C@@H](CO)C(=O)N[C@@H](CC(C)C)C(=O)N[C@@H](CC(=O)O)C(=O)N[C@@H](C(=O)N1CCC[C@H]1C(=O)N[C@H](C(=O)NCC(=O)N[C@@H](CC(C)C)C(=O)N[C@@H](CCCCNC(=O)CC[C@H](NC(=O)CCCCCCCCCCCCCCC(=O)O)C(=O)O)C(=O)N[C@@H](CCC(N)=O)C(=O)N[C@H](C(=O)N[C@@H](CC(C)C)C(=O)N[C@@H](CC(C)C)C(=O)N[C@@H](CCCCN)C(=O)N[C@@H](CCC(N)=O)C(=O)N[C@@H](CCC(=O)O)C(=O)N[C@@H](CCCNC(=N)N)C(=O)N[C@@H](CCC(N)=O)C(=O)N[C@@H](CCCCN)C(=O)N[C@@H](CCCCN)C(=O)NC(C)(C)C(=O)N[C@@H](CCCNC(=N)N)C(=O)N[C@@H](CCC(=O)O)C(=O)N[C@@H](CCC(N)=O)C(=O)N[C@@H](C)C(=O)N[C@@H](CCC(=O)O)C(=O)N[C@H](C(=O)N[C@@H](CC(N)=O)C(=O)N[C@@H](CCCCN)C(=O)N[C@@H](CCCNC(=N)N)C(=O)N[C@H](C(=O)N[C@@H](CC(C)C)C(=O)N[C@@H](CCC(=O)O)C(=O)N[C@@H](CCCNC(=N)N)C(=O)N[C@H](C(N)=O)C(C)C)[C@@H](C)CC)[C@@H](C)O)[C@@H](C)CC)[C@@H](C)CC)C(C)C)C(C)C) [peptide of SEQ ID NO: 193]
> 500,> 100 nM,IVLSLD[dV]PIKLK([γGlu-C16 diacid])QILLKQERQKK[Aib]RQKAEKNKQILAQV-NH2 (N-terminus assumed; SMILES CC[C@H](C)[C@H](N)C(=O)N[C@H](C(=O)N[C@@H](CC(C)C)C(=O)N[C@@H](CO)C(=O)N[C@@H](CC(C)C)C(=O)N[C@@H](CC(=O)O)C(=O)N[C@@H](C(=O)N1CCC[C@H]1C(=O)N[C@H](C(=O)N[C@@H](CCCCN)C(=O)N[C@@H](CC(C)C)C(=O)N[C@@H](CCCCNC(=O)CC[C@H](NC(=O)CCCCCCCCCCCCCCC(=O)O)C(=O)O)C(=O)N[C@@H](CCC(N)=O)C(=O)N[C@H](C(=O)N[C@@H](CC(C)C)C(=O)N[C@@H](CC(C)C)C(=O)N[C@@H](CCCCN)C(=O)N[C@@H](CCC(N)=O)C(=O)N[C@@H](CCC(=O)O)C(=O)N[C@@H](CCCNC(=N)N)C(=O)N[C@@H](CCC(N)=O)C(=O)N[C@@H](CCCCN)C(=O)N[C@@H](CCCCN)C(=O)NC(C)(C)C(=O)N[C@@H](CCCNC(=N)N)C(=O)N[C@@H](CCC(N)=O)C(=O)N[C@@H](CCCCN)C(=O)N[C@@H](C)C(=O)N[C@@H](CCC(=O)O)C(=O)N[C@@H](CCCCN)C(=O)N[C@@H](CC(N)=O)C(=O)N[C@@H](CCCCN)C(=O)N[C@@H](CCC(N)=O)C(=O)N[C@H](C(=O)N[C@@H](CC(C)C)C(=O)N[C@@H](C)C(=O)N[C@@H](CCC(N)=O)C(=O)N[C@H](C(N)=O)C(C)C)[C@@H](C)CC)[C@@H](C)CC)[C@@H](C)CC)C(C)C)C(C)C) [peptide of SEQ ID NO: 189]
> 500,> 100 nM,IVLSLD[dV]PIGLK([γGlu-C16 diacid])QILLKQERQKK[Aib]RQQAETNKRILERV-NH2 (N-terminus assumed; SMILES CC[C@H](C)[C@H](N)C(=O)N[C@H](C(=O)N[C@@H](CC(C)C)C(=O)N[C@@H](CO)C(=O)N[C@@H](CC(C)C)C(=O)N[C@@H](CC(=O)O)C(=O)N[C@@H](C(=O)N1CCC[C@H]1C(=O)N[C@H](C(=O)NCC(=O)N[C@@H](CC(C)C)C(=O)N[C@@H](CCCCNC(=O)CC[C@H](NC(=O)CCCCCCCCCCCCCCC(=O)O)C(=O)O)C(=O)N[C@@H](CCC(N)=O)C(=O)N[C@H](C(=O)N[C@@H](CC(C)C)C(=O)N[C@@H](CC(C)C)C(=O)N[C@@H](CCCCN)C(=O)N[C@@H](CCC(N)=O)C(=O)N[C@@H](CCC(=O)O)C(=O)N[C@@H](CCCNC(=N)N)C(=O)N[C@@H](CCC(N)=O)C(=O)N[C@@H](CCCCN)C(=O)N[C@@H](CCCCN)C(=O)NC(C)(C)C(=O)N[C@@H](CCCNC(=N)N)C(=O)N[C@@H](CCC(N)=O)C(=O)N[C@@H](CCC(N)=O)C(=O)N[C@@H](C)C(=O)N[C@@H](CCC(=O)O)C(=O)N[C@H](C(=O)N[C@@H](CC(N)=O)C(=O)N[C@@H](CCCCN)C(=O)N[C@@H](CCCNC(=N)N)C(=O)N[C@H](C(=O)N[C@@H](CC(C)C)C(=O)N[C@@H](CCC(=O)O)C(=O)N[C@@H](CCCNC(=N)N)C(=O)N[C@H](C(N)=O)C(C)C)[C@@H](C)CC)[C@@H](C)O)[C@@H](C)CC)[C@@H](C)CC)C(C)C)C(C)C) [peptide of SEQ ID NO: 195]
> 500,> 100 nM,IVLSLD[dV]PIKLK([γGlu-C16 diacid])QILLKQERQK[Aib]QREQAEKNKQILAQV-NH2 (N-terminus assumed; SMILES CC[C@H](C)[C@H](N)C(=O)N[C@H](C(=O)N[C@@H](CC(C)C)C(=O)N[C@@H](CO)C(=O)N[C@@H](CC(C)C)C(=O)N[C@@H](CC(=O)O)C(=O)N[C@@H](C(=O)N1CCC[C@H]1C(=O)N[C@H](C(=O)N[C@@H](CCCCN)C(=O)N[C@@H](CC(C)C)C(=O)N[C@@H](CCCCNC(=O)CC[C@H](NC(=O)CCCCCCCCCCCCCCC(=O)O)C(=O)O)C(=O)N[C@@H](CCC(N)=O)C(=O)N[C@H](C(=O)N[C@@H](CC(C)C)C(=O)N[C@@H](CC(C)C)C(=O)N[C@@H](CCCCN)C(=O)N[C@@H](CCC(N)=O)C(=O)N[C@@H](CCC(=O)O)C(=O)N[C@@H](CCCNC(=N)N)C(=O)N[C@@H](CCC(N)=O)C(=O)N[C@@H](CCCCN)C(=O)NC(C)(C)C(=O)N[C@@H](CCC(N)=O)C(=O)N[C@@H](CCCNC(=N)N)C(=O)N[C@@H](CCC(=O)O)C(=O)N[C@@H](CCC(N)=O)C(=O)N[C@@H](C)C(=O)N[C@@H](CCC(=O)O)C(=O)N[C@@H](CCCCN)C(=O)N[C@@H](CC(N)=O)C(=O)N[C@@H](CCCCN)C(=O)N[C@@H](CCC(N)=O)C(=O)N[C@H](C(=O)N[C@@H](CC(C)C)C(=O)N[C@@H](C)C(=O)N[C@@H](CCC(N)=O)C(=O)N[C@H](C(N)=O)C(C)C)[C@@H](C)CC)[C@@H](C)CC)[C@@H](C)CC)C(C)C)C(C)C) [peptide of SEQ ID NO: 187]
